# Patent US20240139265A1
# Target: HLA-A*24:02 class I complex (biotinylated heavy chain with beta2-microglobulin) (human)
# Test: UV peptide exchange + HLA class I ELISA; % of Pos control peptide
# Details: remark: other sources report otherwise
row,Binder,exchange rate with Pos peptide
1,YLRRQKRLK (here or on the partner: biotinylated heavy chain) [P60 9-mer neoantigen peptide … (FOXA1.p.F266L missense)],0.9%
2,YQFTFDLLI (here or on the partner: biotinylated heavy chain) [P48 9-mer neoantigen peptide … (AR.p.H875Y missense)],0.1%
3,LMAQRLLLR (here or on the partner: biotinylated heavy chain) [P97 9-mer neoantigen peptide … (FOXRED2-TXN2 fusion)],0.1%
4,CYLGRQKRF (here or on the partner: biotinylated heavy chain) [P61 9-mer neoantigen peptide … (FOXA1.p.R261G missense)],90.3%
5,RAKCKFSIL (here or on the partner: biotinylated heavy chain) [P56 9-mer neoantigen peptide … (SPOP(F102C) missense)],0.5%
6,IPVLTRWPL (here or on the partner: biotinylated heavy chain) [P19 9-mer neoantigen peptide … (TMEM222-LOC644961 fusion)],0.1%
7,CPMSRLRLA (here or on the partner: biotinylated heavy chain) [P46 9-mer neoantigen peptide … (TP53 (R213D) frameshift)],-0.4%
8,HVPKILSGK (here or on the partner: biotinylated heavy chain) [P58 9-mer neoantigen peptide … (AR (Q903H) missense)],0.2%
9,QLIAMDSAI (here or on the partner: biotinylated heavy chain) [P22 9-mer neoantigen peptide … (SLC45A3-ELK4 fusion)],0%
10,RAVRRMNTF (here or on the partner: biotinylated heavy chain) [P17 9-mer neoantigen peptide … (MSMB-NOCA4 fusion)],0.1%
11,FLFLLLPLS (here or on the partner: biotinylated heavy chain) [P87 9-mer neoantigen peptide … (AR-Intron splice variant)],0.2%
12,RVGNCKHLK (here or on the partner: biotinylated heavy chain) [P82 9-mer neoantigen peptide … (AR-V7 splice variant)],-0.1%
13,YCMAAPMGL (here or on the partner: biotinylated heavy chain) [P76 9-mer neoantigen peptide … (AR-V3 splice variant)],-0.5%
14,IVWWCPMSR (here or on the partner: biotinylated heavy chain) [P98 9-mer neoantigen peptide … (TP53 (R213D) frameshift)],-0.1%
15,LLERNSFEV (here or on the partner: biotinylated heavy chain) [P73 9-mer neoantigen peptide … (TP53 (G266E) missense)],0.5%

# Target: HLA-A*01:01 class I complex (biotinylated heavy chain with beta2-microglobulin) (human)
# Test: as above
# Details: remark: other sources report otherwise
row,Binder,exchange rate with Pos peptide
1,YLRRQKRLK (here or on the partner: biotinylated heavy chain) [P60 9-mer neoantigen peptide … (FOXA1.p.F266L missense)],3.1%
2,YQFTFDLLI (here or on the partner: biotinylated heavy chain) [P48 9-mer neoantigen peptide … (AR.p.H875Y missense)],4.3%
3,LMAQRLLLR (here or on the partner: biotinylated heavy chain) [P97 9-mer neoantigen peptide … (FOXRED2-TXN2 fusion)],2.5%
4,CYLGRQKRF (here or on the partner: biotinylated heavy chain) [P61 9-mer neoantigen peptide … (FOXA1.p.R261G missense)],1.7%
5,RAKCKFSIL (here or on the partner: biotinylated heavy chain) [P56 9-mer neoantigen peptide … (SPOP(F102C) missense)],2.6%
6,IPVLTRWPL (here or on the partner: biotinylated heavy chain) [P19 9-mer neoantigen peptide … (TMEM222-LOC644961 fusion)],5.2%
7,CPMSRLRLA (here or on the partner: biotinylated heavy chain) [P46 9-mer neoantigen peptide … (TP53 (R213D) frameshift)],2.4%
8,HVPKILSGK (here or on the partner: biotinylated heavy chain) [P58 9-mer neoantigen peptide … (AR (Q903H) missense)],2.5%
9,QLIAMDSAI (here or on the partner: biotinylated heavy chain) [P22 9-mer neoantigen peptide … (SLC45A3-ELK4 fusion)],4.4%
10,RAVRRMNTF (here or on the partner: biotinylated heavy chain) [P17 9-mer neoantigen peptide … (MSMB-NOCA4 fusion)],4.9%
11,FLFLLLPLS (here or on the partner: biotinylated heavy chain) [P87 9-mer neoantigen peptide … (AR-Intron splice variant)],1.1%
12,RVGNCKHLK (here or on the partner: biotinylated heavy chain) [P82 9-mer neoantigen peptide … (AR-V7 splice variant)],1.5%
13,YCMAAPMGL (here or on the partner: biotinylated heavy chain) [P76 9-mer neoantigen peptide … (AR-V3 splice variant)],0.1%
14,IVWWCPMSR (here or on the partner: biotinylated heavy chain) [P98 9-mer neoantigen peptide … (TP53 (R213D) frameshift)],2.5%

# Target: HLA-B*07:02 class I complex (biotinylated heavy chain with beta2-microglobulin) (human)
# Test: as above
# Details: remark: other sources report otherwise
row,Binder,exchange rate with Pos peptide
1,YLRRQKRLK (here or on the partner: biotinylated heavy chain) [P60 9-mer neoantigen peptide … (FOXA1.p.F266L missense)],6.1%
2,YQFTFDLLI (here or on the partner: biotinylated heavy chain) [P48 9-mer neoantigen peptide … (AR.p.H875Y missense)],12.8%
3,LMAQRLLLR (here or on the partner: biotinylated heavy chain) [P97 9-mer neoantigen peptide … (FOXRED2-TXN2 fusion)],7%
4,RAKCKFSIL (here or on the partner: biotinylated heavy chain) [P56 9-mer neoantigen peptide … (SPOP(F102C) missense)],82.5%
5,IPVLTRWPL (here or on the partner: biotinylated heavy chain) [P19 9-mer neoantigen peptide … (TMEM222-LOC644961 fusion)],91.3%
6,CPMSRLRLA (here or on the partner: biotinylated heavy chain) [P46 9-mer neoantigen peptide … (TP53 (R213D) frameshift)],64.8%
7,QLIAMDSAI (here or on the partner: biotinylated heavy chain) [P22 9-mer neoantigen peptide … (SLC45A3-ELK4 fusion)],8.3%
8,RAVRRMNTF (here or on the partner: biotinylated heavy chain) [P17 9-mer neoantigen peptide … (MSMB-NOCA4 fusion)],38.7%
9,FLFLLLPLS (here or on the partner: biotinylated heavy chain) [P87 9-mer neoantigen peptide … (AR-Intron splice variant)],5%
10,RVGNCKHLK (here or on the partner: biotinylated heavy chain) [P82 9-mer neoantigen peptide … (AR-V7 splice variant)],12.9%
11,YCMAAPMGL (here or on the partner: biotinylated heavy chain) [P76 9-mer neoantigen peptide … (AR-V3 splice variant)],91.5%
12,IVWWCPMSR (here or on the partner: biotinylated heavy chain) [P98 9-mer neoantigen peptide … (TP53 (R213D) frameshift)],6.7%
13,LLERNSFEV (here or on the partner: biotinylated heavy chain) [P73 9-mer neoantigen peptide … (TP53 (G266E) missense)],8.7%

# Target: HLA-A*02:01 class I complex (biotinylated heavy chain with beta2-microglobulin) (human)
# Test: as above
# Details: remark: other sources report otherwise
row,Binder,exchange rate with Pos peptide
1,YLRRQKRLK (here or on the partner: biotinylated heavy chain) [P60 9-mer neoantigen peptide … (FOXA1.p.F266L missense)],7.9%
2,YQFTFDLLI (here or on the partner: biotinylated heavy chain) [P48 9-mer neoantigen peptide … (AR.p.H875Y missense)],99.3%
3,LMAQRLLLR (here or on the partner: biotinylated heavy chain) [P97 9-mer neoantigen peptide … (FOXRED2-TXN2 fusion)],4.6%
4,CYLGRQKRF (here or on the partner: biotinylated heavy chain) [P61 9-mer neoantigen peptide … (FOXA1.p.R261G missense)],5.8%
5,RAKCKFSIL (here or on the partner: biotinylated heavy chain) [P56 9-mer neoantigen peptide … (SPOP(F102C) missense)],8.4%
6,IPVLTRWPL (here or on the partner: biotinylated heavy chain) [P19 9-mer neoantigen peptide … (TMEM222-LOC644961 fusion)],8.2%
7,CPMSRLRLA (here or on the partner: biotinylated heavy chain) [P46 9-mer neoantigen peptide … (TP53 (R213D) frameshift)],14.4%
8,HVPKILSGK (here or on the partner: biotinylated heavy chain) [P58 9-mer neoantigen peptide … (AR (Q903H) missense)],11.8%
9,QLIAMDSAI (here or on the partner: biotinylated heavy chain) [P22 9-mer neoantigen peptide … (SLC45A3-ELK4 fusion)],46.9%
10,FLFLLLPLS (here or on the partner: biotinylated heavy chain) [P87 9-mer neoantigen peptide … (AR-Intron splice variant)],64%
11,RVGNCKHLK (here or on the partner: biotinylated heavy chain) [P82 9-mer neoantigen peptide … (AR-V7 splice variant)],6.3%
12,YCMAAPMGL (here or on the partner: biotinylated heavy chain) [P76 9-mer neoantigen peptide … (AR-V3 splice variant)],85.9%
13,IVWWCPMSR (here or on the partner: biotinylated heavy chain) [P98 9-mer neoantigen peptide … (TP53 (R213D) frameshift)],7.9%
14,LLERNSFEV (here or on the partner: biotinylated heavy chain) [P73 9-mer neoantigen peptide … (TP53 (G266E) missense)],89.2%

# Target: HLA-A*03:01 class I complex (biotinylated heavy chain with beta2-microglobulin) (human)
# Test: as above
# Details: remark: other sources report otherwise
row,Binder,exchange rate with Pos peptide
1,YLRRQKRLK (here or on the partner: biotinylated heavy chain) [P60 9-mer neoantigen peptide … (FOXA1.p.F266L missense)],36.6%
2,YQFTFDLLI (here or on the partner: biotinylated heavy chain) [P48 9-mer neoantigen peptide … (AR.p.H875Y missense)],4.4%
3,LMAQRLLLR (here or on the partner: biotinylated heavy chain) [P97 9-mer neoantigen peptide … (FOXRED2-TXN2 fusion)],39%
4,RAKCKFSIL (here or on the partner: biotinylated heavy chain) [P56 9-mer neoantigen peptide … (SPOP(F102C) missense)],6.8%
5,IPVLTRWPL (here or on the partner: biotinylated heavy chain) [P19 9-mer neoantigen peptide … (TMEM222-LOC644961 fusion)],4.1%
6,CPMSRLRLA (here or on the partner: biotinylated heavy chain) [P46 9-mer neoantigen peptide … (TP53 (R213D) frameshift)],10.3%
7,HVPKILSGK (here or on the partner: biotinylated heavy chain) [P58 9-mer neoantigen peptide … (AR (Q903H) missense)],32.5%
8,QLIAMDSAI (here or on the partner: biotinylated heavy chain) [P22 9-mer neoantigen peptide … (SLC45A3-ELK4 fusion)],4.8%
9,RAVRRMNTF (here or on the partner: biotinylated heavy chain) [P17 9-mer neoantigen peptide … (MSMB-NOCA4 fusion)],3.8%
10,FLFLLLPLS (here or on the partner: biotinylated heavy chain) [P87 9-mer neoantigen peptide … (AR-Intron splice variant)],2.4%
11,RVGNCKHLK (here or on the partner: biotinylated heavy chain) [P82 9-mer neoantigen peptide … (AR-V7 splice variant)],58.1%
12,YCMAAPMGL (here or on the partner: biotinylated heavy chain) [P76 9-mer neoantigen peptide … (AR-V3 splice variant)],6%
13,IVWWCPMSR (here or on the partner: biotinylated heavy chain) [P98 9-mer neoantigen peptide … (TP53 (R213D) frameshift)],51.1%
14,LLERNSFEV (here or on the partner: biotinylated heavy chain) [P73 9-mer neoantigen peptide … (TP53 (G266E) missense)],3.5%
